B1: modified human superoxide dismutase 3 (hSOD3hd^-): residues 50-59 replaced with a copy of 74-80, and heparin-binding domain residues 212-240 deleted (enzyme)
chain: WTGEDSAEPNSDSAEWIRDMYAKVTEIWQEVATLDAAQHAACQVQPSATLDAAQPRVTGVVLFRQLAPRAKLDAFFALEGFPTEPNSSSRAIHVHQFGDLSQGCESTGPHYNPLAVPHPQHPGDFGNFAVRDGSLWRYRAGLAASLAGPHSIVGRAVVVHAGEDDLGRGGNQASVENGNAGRRLACCVVG
notes: also called expression product of LEX 5b; not shown: Hemagglutinin (HA) tag used for detection with anti-HA
B2: human catalase monomer with a 20 amino acid deletion from the wrapping loop domain (hCatWL^-) (enzyme)
chain: ADSRDPASDQMQHWKEQRAAQKADVLTTGAGNPVGDKLNVITVGPRGPLLVQDVVFTDEMAHFDRERIPERVVHAKGAGAFGYFEVTHDITKYSKAKVFEHIGKKTPIAVRFSTVAGESGSADTVRDPRGFAVKFYTEDGNWDLVGNNTPIFFIRDPILFPSFIHSQKRNPQTHLKDPDMVWDFWSLRPESLHQVSFLFSDRGIPDGHRHMNGYGSHTFKLVNANGEAVYCKFHYKTDQGIKNLSVEDAARLSQEDPDYGIRDLFNAIATGKYPSWTFYIQVMTFNQAETFPFNPFDLTKVWPHKDYPLIPVGKLVLNRNPVNYFAEVEQIAFDPSNMPPGIEASPDKMLQGRLFAYPDTHRHRLGPNYLHIPVNCPYRAPNYYPNSFGAPEQQPSALEHSIQYSGEVRRFNTANDDNVTQVRAFYVNVLNEEQRKRLCENIAGHLKDAQIFIQKKAVKNFTEVHPDYGSHIQALLDKYNAEKPKNAIHTFVQSGSHLAAREKANLYPYDVPDYA
notes: also called hCatWD^-

Tests used:
[1] = target: the molecule itself; assay: Sephacryl size exclusion column fractions, anti-HA Western (self-association, tetramer formation)
Method: FIGS. 6A-B. Modified SOD3 construct. A) Secretion of the modified SOD3 constructs. Western (anti-HA tag) of supernatant of 293T cells transfected with: lane 1—mock; lane 2—unmodified HA tagged SOD3; lane 3—SOD3hd⁻. Only SOD3hd⁻ is in the supernatant. […] Approximate MW are calculated from column specifications.
Two modifications were made in a single SOD3 variant (hSOD3hd⁻), including a deletion of residues 50-59 replaced with an in frame copy of the residue segment from 74-80, and a deletion of residues 212-240, the heparin-binding domain. […] Intravenous administration to Balb/c mice led to vector DNA in liver and lung (liver 50-fold higher) and SOD activity in serum (FIG. 7D-F). LEX 5c, LEX 5d. Based on the in vitro and in vivo functional data of LEX 5a and LEX 5b, LEX 5c and LEX 5d were generated to express both catalase and SOD3 modified monomers. Based on expressing 2 genes in 1 AAV construct (De et al., 2008; Wang et al., 2010; Watanabe et al., 2010; Mao et al., 2011; Rosenberg et al., 2012; Hicks et al., 2012; Xie et al., 2014; Hicks et al., 2015; Pagovich et al., 2016; Liu et al., 2016), both […] use a single promoter, with the 2 modified cDNA separated by a furin 2A cleavage site which directs cleavage of the resulting precursor protein to generate the 2 function proteins. […]

[2] = target: the molecule itself; assay: Bis-Tris gel of 293T supernatant (self-association, tetramer formation)
Method: FIG. 14. Assessment of supernatants of catalase constructs for monomeric and multimeric catalase separation. Samples were assessed on Bis-Tris gel, blotted and probed with anti-catalase antibody (ABCAM: ab88067); predicted band sizes, 60 kDa for monomer and 240 kDa for tetramer, aAll 3 constructs secreted only the monomeric construct.
Three modifications of the human catalase sequence were assessed: hCatNT⁻, hCatWL⁻ and hCatNT⁻WL⁻. […] However, of the 3 constructs, only the wrapping loop domain deletion (hCatWD⁻) retained catalase activity (FIG. 5B). […] Intravenous administration to mice led to detection of hCatWD⁻ DNA in the liver and lung (typical for AAVrh.10 vectors) (Chiuchiolo et al., 2013), and importantly, easily detectable human catalase activity in serum, e.g., LEX 5a generates a secreted, functional catalase monomer (FIG. 7A-C).

Protein	binding result [1]	binding result [2]
B1	no binding	
B2		no binding
